Reference: patent US20120039802A1 (published 2012)

Columns and labels:
[1] = biological target: T1, human cMet expressed on 3T3 cells (human, UniProt P08581 25-1390); assay: whole cell phage ELISA, 3T3 human cMet vs 3T3
T1 construct: whole, on cells; cells fixed with glutaraldehyde; also called cell surface-expressed human cMet; 3T3 cells that over-express human cMet
Procedure: Whole cell ELISAs were performed using 3T3 cells that over-express human cMet. […] Briefly, 96-well plates were seeded with 10⁵ cells per well. The plates were centrifuged for 5 minutes at 1600 rpm to pellet the cells. The resulting cell layer was fixed with 0.1% (v/v) glutaraldehyde for 12 minutes at 37 C. […] Peptide-displaying phage also were blocked in the above solution for 1 hour at 37 C. 100 μL of blocked phage was then added to each well and the plates were incubated for 1 hour at room temperature. The plates were washed with PBST. cMet-binding peptide-displaying phage were detected using an HRP-conjugated anti-M13 antibody.

[2] = biological target: T2, cMet-Fc fusion protein (extracellular domain of the cMet receptor expressed as an Fc-fusion protein) (human, UniProt P08581 25-932); assay: phage ELISA on cMet-Fc, competitor HGF 500 ng/mL
T2 construct: extracellular domain; also called soluble cMet-Fc-fusion protein; soluble cMet receptor; not shown: Fc part
Procedure: (§1) These assays were conducted using the peptide-displaying phage discovered from the initial selection and screening campaigns using the first generation peptide libraries. Briefly, 96-well plates were coated overnight at 4 C with 0.5 μg/mL of cMet-Fc fusion protein or TRAIL-Fc fusion protein (background). The plates were blocked for 2 hours at 37 C with 3% BSA in PBST. […] This was followed by an addition of 30 μL of peptide-displaying phage overnight culture to each well. The plates were incubated for 2 hours at room temperature, washed with PBST and cMet-binding peptide-displaying phage was detected using an HRP-conjugated anti-M13 antibody.

[3] = biological target: T2, cMet-Fc fusion protein (extracellular …); assay: phage ELISA on cMet-Fc, competitor HGF 100 ng/mL
Procedure: as §1

[4] = biological target: T2, cMet-Fc fusion protein (extracellular …); assay: phage ELISA, cMet-Fc vs TRAIL-Fc
Procedure: Protein phage ELISAs using peptide-displaying phage isolates from the various selection campaigns were performed to determine specificity of the peptides for cMet versus an unrelated Fc-fusion protein (TRAIL-Fe). Briefly, 384-well plates were coated overnight at 4 C with 0.5 μg/mL of cMet-Fc fusion protein or TRAIL-Fc fusion protein (background). The plates were blocked for 2 hours 37 C with 3% (w/v) BSA in PBS containing 0.05% (v/v) Tween-20 (PBST). The plates were washed with PBST and 100 μL of peptide-displaying phage were added to each well. The plates were incubated for 2 hours at room temperature and washed with PBST. cMet-binding peptide-displaying phage were detected using an HRP-conjugated anti-M13 antibody.

T1 sequence (P08581 25-1390): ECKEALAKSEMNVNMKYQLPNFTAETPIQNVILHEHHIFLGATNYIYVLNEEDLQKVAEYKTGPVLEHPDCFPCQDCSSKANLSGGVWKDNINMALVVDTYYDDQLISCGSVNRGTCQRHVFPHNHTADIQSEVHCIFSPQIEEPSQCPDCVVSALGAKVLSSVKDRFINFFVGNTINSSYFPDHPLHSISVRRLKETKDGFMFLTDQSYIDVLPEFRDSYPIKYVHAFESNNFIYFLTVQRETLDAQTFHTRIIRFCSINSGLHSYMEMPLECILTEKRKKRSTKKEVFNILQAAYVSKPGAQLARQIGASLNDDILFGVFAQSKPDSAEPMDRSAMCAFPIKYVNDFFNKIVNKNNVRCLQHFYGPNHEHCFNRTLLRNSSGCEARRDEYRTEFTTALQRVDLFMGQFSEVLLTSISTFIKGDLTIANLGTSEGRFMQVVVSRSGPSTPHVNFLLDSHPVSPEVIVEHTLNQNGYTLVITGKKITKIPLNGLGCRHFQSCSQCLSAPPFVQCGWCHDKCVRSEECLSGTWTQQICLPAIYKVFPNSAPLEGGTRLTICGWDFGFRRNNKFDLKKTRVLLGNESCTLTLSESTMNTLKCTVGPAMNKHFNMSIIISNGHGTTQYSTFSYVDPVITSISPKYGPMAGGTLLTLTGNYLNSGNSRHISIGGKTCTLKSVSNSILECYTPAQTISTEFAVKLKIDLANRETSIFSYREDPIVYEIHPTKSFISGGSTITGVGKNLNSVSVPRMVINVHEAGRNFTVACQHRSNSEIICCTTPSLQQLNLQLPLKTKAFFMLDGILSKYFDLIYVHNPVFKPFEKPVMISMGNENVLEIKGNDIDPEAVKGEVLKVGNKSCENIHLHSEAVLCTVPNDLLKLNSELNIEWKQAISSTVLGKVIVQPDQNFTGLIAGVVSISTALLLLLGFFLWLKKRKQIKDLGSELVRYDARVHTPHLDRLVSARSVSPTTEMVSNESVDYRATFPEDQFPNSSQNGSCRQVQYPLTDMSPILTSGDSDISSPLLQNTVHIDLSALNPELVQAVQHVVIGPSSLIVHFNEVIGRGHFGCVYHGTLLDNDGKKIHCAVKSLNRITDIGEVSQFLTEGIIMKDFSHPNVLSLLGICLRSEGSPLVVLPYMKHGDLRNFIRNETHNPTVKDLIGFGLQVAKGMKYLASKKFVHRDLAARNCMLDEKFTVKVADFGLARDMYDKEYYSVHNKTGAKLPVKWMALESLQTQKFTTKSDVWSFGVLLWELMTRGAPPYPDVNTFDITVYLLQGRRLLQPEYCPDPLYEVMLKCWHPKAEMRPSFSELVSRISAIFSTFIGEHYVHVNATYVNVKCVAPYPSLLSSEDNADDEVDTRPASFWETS
T2 sequence (P08581 25-932): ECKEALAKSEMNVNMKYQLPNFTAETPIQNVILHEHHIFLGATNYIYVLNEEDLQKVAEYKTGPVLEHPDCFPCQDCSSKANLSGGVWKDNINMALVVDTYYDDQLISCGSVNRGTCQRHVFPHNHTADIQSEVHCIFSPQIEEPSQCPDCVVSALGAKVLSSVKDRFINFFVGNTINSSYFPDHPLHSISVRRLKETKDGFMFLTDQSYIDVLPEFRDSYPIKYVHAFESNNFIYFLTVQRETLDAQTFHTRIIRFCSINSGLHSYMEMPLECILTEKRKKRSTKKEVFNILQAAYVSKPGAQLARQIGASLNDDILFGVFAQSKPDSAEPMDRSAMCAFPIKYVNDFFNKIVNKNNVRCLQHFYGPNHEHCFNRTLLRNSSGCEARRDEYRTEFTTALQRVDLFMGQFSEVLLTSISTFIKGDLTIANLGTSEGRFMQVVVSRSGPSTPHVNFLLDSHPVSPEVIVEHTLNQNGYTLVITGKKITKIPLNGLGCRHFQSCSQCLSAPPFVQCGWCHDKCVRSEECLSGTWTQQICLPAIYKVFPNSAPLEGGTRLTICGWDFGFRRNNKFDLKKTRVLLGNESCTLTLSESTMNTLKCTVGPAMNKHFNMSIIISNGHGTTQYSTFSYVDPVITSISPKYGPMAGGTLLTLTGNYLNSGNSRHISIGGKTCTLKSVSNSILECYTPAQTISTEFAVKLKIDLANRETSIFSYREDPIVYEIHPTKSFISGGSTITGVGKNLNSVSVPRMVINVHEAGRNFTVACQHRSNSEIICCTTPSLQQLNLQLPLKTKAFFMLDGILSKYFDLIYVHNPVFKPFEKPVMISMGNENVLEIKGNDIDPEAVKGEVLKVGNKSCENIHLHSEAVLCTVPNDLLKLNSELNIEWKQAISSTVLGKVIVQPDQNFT

Binder: AGHAWCSGPPRFECWPPGT [329-D02 peptide-displaying phage (SEQ ID NO: 061)]
- WC ELISA (fold over background) [1]: 1.27 fold
- % of binding in the absence of HGF [2]: 31%
- % of binding in the absence of HGF [3]: 53%
- Protein ELISA (fold over background) [4]: 3.2 fold

Binder: AGWTHCIGPPTFECIPMGT [334-G06 peptide-displaying phage (SEQ ID NO: 052)]
- WC ELISA (fold over background) [1]: 1.3 fold
- % of binding in the absence of HGF [2]: 43%
- % of binding in the absence of HGF [3]: 56%
- Protein ELISA (fold over background) [4]: 8 fold

Binder: AGFVNCKGPPTFECILTGT [538-F08 peptide-displaying phage (SEQ ID NO: 057)]
- WC ELISA (fold over background) [1]: 1.23 fold
- % of binding in the absence of HGF [2]: 43%
- % of binding in the absence of HGF [3]: 55%
- Protein ELISA (fold over background) [4]: 12.3 fold

Binder: AGSIQCKGPPWFSCAMYGT [325-H05 peptide-displaying phage (SEQ ID NO: 048)]
- WC ELISA (fold over background) [1]: 1.47 fold
- % of binding in the absence of HGF [2]: 32%
- % of binding in the absence of HGF [3]: 41%
- Protein ELISA (fold over background) [4]: 15.9 fold

Binder: AGHYWCAGPPTFICMGPGT [550-C09 peptide-displaying phage (SEQ ID NO: 062)]
- WC ELISA (fold over background) [1]: 1.4 fold
- % of binding in the absence of HGF [2]: 25%
- % of binding in the absence of HGF [3]: 25%
- Protein ELISA (fold over background) [4]: 10.2 fold

Binder: AGYYGCKGPPTFECQWMGT [330-F05 peptide-displaying phage (SEQ ID NO: 049)]
- WC ELISA (fold over background) [1]: 1.33 fold
- % of binding in the absence of HGF [2]: 27%
- % of binding in the absence of HGF [3]: 51%
- Protein ELISA (fold over background) [4]: 13.8 fold

Binder: AGSWHCAGPPSFECWEFGT [331-G04 peptide-displaying phage (SEQ ID NO: 055)]
- WC ELISA (fold over background) [1]: 1.47 fold
- % of binding in the absence of HGF [2]: 36%
- % of binding in the absence of HGF [3]: 56%
- Protein ELISA (fold over background) [4]: 18.3 fold

Binder: AGWISCAGPPTFACWPGGT [548-F06 peptide-displaying phage (SEQ ID NO: 056)]
- WC ELISA (fold over background) [1]: 1.23 fold
- % of binding in the absence of HGF [2]: 18%
- % of binding in the absence of HGF [3]: 76%
- Protein ELISA (fold over background) [4]: 14.3 fold

Binder: AGWFQCKGPPSFECERHGT [336-G04 peptide-displaying phage (SEQ ID NO: 051)]
- WC ELISA (fold over background) [1]: 1.33 fold
- % of binding in the absence of HGF [2]: 23%
- % of binding in the absence of HGF [3]: 46%
- Protein ELISA (fold over background) [4]: 5.4 fold

Binder: GDGFLCRWENGWCEFWDP [545-E08 peptide-displaying phage (SEQ ID NO: 047)]
- WC ELISA (fold over background) [1]: 1.3 fold
- % of binding in the absence of HGF [2]: 57%
- % of binding in the absence of HGF [3]: 81%
- Protein ELISA (fold over background) [4]: 4.7 fold

Binder: AGDWHCQGPPAFMCWMIGT [330-C01 peptide-displaying phage (SEQ ID NO: 065)]
- WC ELISA (fold over background) [1]: 1.3 fold
- % of binding in the absence of HGF [2]: 43%
- % of binding in the absence of HGF [3]: 58%
- Protein ELISA (fold over background) [4]: 4.7 fold

Binder: AGSFACKGPPTFACVEFGT [330-B07 peptide-displaying phage (SEQ ID NO: 053)]
- WC ELISA (fold over background) [1]: 1.27 fold
- % of binding in the absence of HGF [2]: 40%
- % of binding in the absence of HGF [3]: 58%
- Protein ELISA (fold over background) [4]: 18.1 fold

Binder: AGYTSCVGPPSFECTPYGT [323-A11 peptide-displaying phage (SEQ ID NO: 059)]
- WC ELISA (fold over background) [1]: 1.43 fold
- % of binding in the absence of HGF [2]: 18%
- % of binding in the absence of HGF [3]: 41%
- Protein ELISA (fold over background) [4]: 21.2 fold

Binder: AGHGTCRGWPTFECIYFGT [332-A05 peptide-displaying phage (SEQ ID NO: 064)]
- WC ELISA (fold over background) [1]: 1.4 fold
- % of binding in the absence of HGF [2]: 21%
- % of binding in the absence of HGF [3]: 40%
- Protein ELISA (fold over background) [4]: 6 fold

Binder: GSWIICWWDNCGSSAP [571-C05 peptide-displaying phage (SEQ ID NO: 001)]
- WC ELISA (fold over background) [1]: 1.3 fold
- % of binding in the absence of HGF [2]: 74%
- % of binding in the absence of HGF [3]: 102%
- Protein ELISA (fold over background) [4]: 4.9 fold

Binder: AGYFECKGPPTFECWLSGT [333-H03 peptide-displaying phage (SEQ ID NO: 060)]
- WC ELISA (fold over background) [1]: 1.43 fold
- % of binding in the absence of HGF [2]: 37%
- % of binding in the absence of HGF [3]: 55%
- Protein ELISA (fold over background) [4]: 8.1 fold

Binder: GSLIFCPYGECMMYAP [470-E11 peptide-displaying phage (SEQ ID NO: 005)]
- WC ELISA (fold over background) [1]: 1.33 fold
- % of binding in the absence of HGF [2]: 127%
- % of binding in the absence of HGF [3]: 55%
- Protein ELISA (fold over background) [4]: 3.5 fold

Binder: AGDWICHGPPMFECEWVGT [547-H07 peptide-displaying phage (SEQ ID NO: 058)]
- WC ELISA (fold over background) [1]: 1.17 fold
- % of binding in the absence of HGF [2]: 45%
- % of binding in the absence of HGF [3]: 60%
- Protein ELISA (fold over background) [4]: 15.9 fold

Binder: ADAWMCEYFQWNCGDKGT [458-B05 peptide-displaying phage (SEQ ID NO: 046)]
- WC ELISA (fold over background) [1]: 1.33 fold
- % of binding in the absence of HGF [2]: 247%
- % of binding in the absence of HGF [3]: 201%
- Protein ELISA (fold over background) [4]: 4.5 fold

Binder: AGNYFCAGSPSFSCYFMGT [330-C10 peptide-displaying phage (SEQ ID NO: 054)]
- WC ELISA (fold over background) [1]: 1.33 fold
- % of binding in the absence of HGF [2]: 25%
- % of binding in the absence of HGF [3]: 48%
- Protein ELISA (fold over background) [4]: 13.4 fold

Binder: AGQFKCAGPPSFACWMTGT [333-F09 peptide-displaying phage (SEQ ID NO: 050)]
- WC ELISA (fold over background) [1]: 1.43 fold
- % of binding in the absence of HGF [2]: 32%
- % of binding in the absence of HGF [3]: 52%
- Protein ELISA (fold over background) [4]: 14.8 fold

Binder: GSEYSCRTSRCIFSAP [452-F01 peptide-displaying phage (SEQ ID NO: 006)]
- WC ELISA (fold over background) [1]: 1.33 fold
- % of binding in the absence of HGF [2]: 110%
- % of binding in the absence of HGF [3]: 117%
- Protein ELISA (fold over background) [4]: 3.2 fold

Binder: AGETTCLGWPTFVCVDYGT [548-E08 peptide-displaying phage (SEQ ID NO: 063)]
- WC ELISA (fold over background) [1]: 1.27 fold
- % of binding in the absence of HGF [2]: 50%
- % of binding in the absence of HGF [3]: 102%
- Protein ELISA (fold over background) [4]: 5.3 fold
